Test results taken from paper PMC8631942.

Columns and labels:
[1] = target: SHP1 (UniProt P29350); assay: GFP-Trap co-IP, SHP1 blot; details: reference: BTLA wild type
[2] = target: SHP2 (UniProt Q06124); assay: GFP-Trap co-IP, SHP2 blot; details: reference: BTLA wild type

Substance	binding against the reference ([1]; sites Y257)	binding against the reference ([2]; sites Y257)	binding against the reference ([1]; sites Y282)	binding against the reference ([2]; sites Y282)
BTLA (from UniProt Q7Z6A9) BTLAYYFY (Y257F)	lost	lost		
BTLA (from UniProt Q7Z6A9) BTLAYYYF (Y282F)			lost	lost
